The text below walks through data of IntAct's records for PubMed 20385816.

This assay concerns the target slac1_arath SLAC1 (UniProt Q9LD83).

Chain of slac1_arath SLAC1 (Q9LD83 whole entry): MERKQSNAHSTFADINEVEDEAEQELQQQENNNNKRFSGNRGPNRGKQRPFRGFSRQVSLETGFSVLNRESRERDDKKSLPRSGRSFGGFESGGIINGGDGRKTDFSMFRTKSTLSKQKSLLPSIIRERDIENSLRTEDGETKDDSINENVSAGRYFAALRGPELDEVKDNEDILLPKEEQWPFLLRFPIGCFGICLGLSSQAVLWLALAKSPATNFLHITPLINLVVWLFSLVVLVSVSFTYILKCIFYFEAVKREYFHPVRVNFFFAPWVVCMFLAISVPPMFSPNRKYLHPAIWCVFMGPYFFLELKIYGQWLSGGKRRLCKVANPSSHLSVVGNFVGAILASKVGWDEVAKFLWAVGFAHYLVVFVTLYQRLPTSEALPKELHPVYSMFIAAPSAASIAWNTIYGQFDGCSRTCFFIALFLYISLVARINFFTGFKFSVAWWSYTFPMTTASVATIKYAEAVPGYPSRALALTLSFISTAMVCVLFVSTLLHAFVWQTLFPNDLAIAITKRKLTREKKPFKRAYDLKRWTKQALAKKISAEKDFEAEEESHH
Chain of Calcium-dependent protein kinase 23 (Arabidopsis thaliana (Mouse-ear cress)), Q9M101 D193A (Q9M101 whole entry D193A): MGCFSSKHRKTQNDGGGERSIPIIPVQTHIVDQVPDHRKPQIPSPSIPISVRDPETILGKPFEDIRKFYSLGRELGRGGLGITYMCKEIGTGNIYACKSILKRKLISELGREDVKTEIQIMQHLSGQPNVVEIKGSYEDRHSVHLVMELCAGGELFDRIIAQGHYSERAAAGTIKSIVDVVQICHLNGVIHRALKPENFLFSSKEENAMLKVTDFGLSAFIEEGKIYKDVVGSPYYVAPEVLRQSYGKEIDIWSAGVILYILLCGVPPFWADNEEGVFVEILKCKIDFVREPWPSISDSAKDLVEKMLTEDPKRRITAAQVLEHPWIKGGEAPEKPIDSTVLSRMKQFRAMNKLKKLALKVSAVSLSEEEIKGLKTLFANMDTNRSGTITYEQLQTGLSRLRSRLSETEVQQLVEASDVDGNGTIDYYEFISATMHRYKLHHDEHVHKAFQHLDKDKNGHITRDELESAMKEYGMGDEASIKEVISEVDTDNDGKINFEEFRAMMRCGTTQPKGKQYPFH

In the case of “Calcium-dependent protein kinase 23 (Arabidopsis thaliana (Mouse-ear cress)), Q9M101 D193A”, the “effect of a mutation on the interaction” value was “disrupting interaction”.
